From PMC6399350, “Heterologous calcium-dependent inactivation of Orai1 by neighboring TRPV1 channels modulates cell migration and wound healing” (Communications Biology, 2019)
No end group written: not given here.

T1: Orai1-COOH-DsRed (carboxyl terminus of Orai1 fused to the red fluorescent protein) (human)
T1 construct: also called Orai1-dsRED-COOH peptide; source: spotted on the microarray slide; not shown: DsRed, C-terminal, kept
T1 chain: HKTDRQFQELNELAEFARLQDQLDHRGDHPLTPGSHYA

T2: ANK1 domain printed on the microarray slide as bait (rat)
T2 construct: ankyrin domain 1 of rat TRPV1, 110-152; The methods say 'the ANK1 domain (see above)', which points to the ANK1-GFP fusion; Kept apart from m6 for that reason; source: purified peptide, printed on glass microarray slides coated with poly-D-lysine
T2 chain: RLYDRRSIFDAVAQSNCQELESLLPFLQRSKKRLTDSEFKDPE

B1: ANK3-GFP (third ankyrin domain of rat TRPV1 fused to GFP) (domain or fragment)
chain: KGQTALHIAIERRNMTLVTLLVENGADVQAAANGDFFKKTKGRPGFY
notes: ankyrin domain 3 of rat TRPV1, 200-246; source: HEK293, transfected, in lysate (co-IP); HEK293 in suspension, sonicated, immunoprecipitated with anti-GFP antibody (microarray); not shown: enhanced GFP, C-terminal, kept
B2: ANK2-GFP (second ankyrin domain of rat TRPV1 fused to GFP) (domain or fragment)
chain: TGKTCLLKAMLNLHNGQNDTIALLLDVARKTDSLKQFVNASYTDSYY
notes: ankyrin domain 2 of rat TRPV1, 153-199; source: HEK293, transfected, in lysate (co-IP); HEK293 in suspension, sonicated, immunoprecipitated with anti-GFP antibody (microarray); not shown: enhanced GFP, C-terminal, kept
B3: ANK1-GFP (first ankyrin domain of rat TRPV1 fused to GFP) (domain or fragment)
chain: T2 chain
notes: ankyrin domain 1 of rat TRPV1, 110-152; source: HEK293, transfected, in lysate (co-IP); HEK293 in suspension, sonicated, immunoprecipitated with anti-GFP antibody (microarray); not shown: enhanced GFP, C-terminal, kept
B4: ANK4-GFP (fourth ankyrin domain of rat TRPV1 fused to GFP) (domain or fragment)
chain: FGELPLSLAACTNQLAIVKFLLQNSWQPADISARDS
notes: ankyrin domain 4 of rat TRPV1, 247-282; source: HEK293 in suspension, sonicated, immunoprecipitated with anti-GFP antibody (microarray); not shown: enhanced GFP, C-terminal, kept
B5: Orai1-COOH-GFP (carboxyl terminus of Orai1 fused to GFP) (domain or fragment, human)
chain: T1 chain
modifications: also: fused to GFP
notes: source: HEK293 in suspension, sonicated, immunoprecipitated with anti-GFP antibody (procedure as for the ANK-GFP fusions); not shown: GFP, C-terminal, kept

How the values were obtained:
[1] = molecular target: T1, Orai1-COOH-DsRed (carboxyl terminus of …); experiment: peptide or protein array; TIRFM microarray; Orai1-COOH-DsRed printed on poly-D-lysine coated glass as bait, ANK domains fused to GFP in solution at 1 uM, 3 min incubation, wash with saline, GFP fluorescence read; conditions: both partners purified
[2] = molecular target: T2, ANK1 domain printed on the microarray …; experiment: peptide or protein array; TIRFM microarray; ANK1 domain printed on poly-D-lysine coated glass as bait, Orai1 terminus fused to GFP in solution, GFP fluorescence read; conditions: both partners purified

Row | Binder | binding result [1] | binding result [2]
1 | B1 | binds | –
2 | B2 | binds | –
3 | B3 | binds | –
4 | B4 | binds | –
5 | B5 | – | binds
